Bridge positions count the residues as written; N and C are the ends. Square brackets hold non-standard residues; d marks the D form. Ends that are not written are not given here. S5 = C=CCCC[C@](C)(N)C(=O)O
B1: ^BT1^S (biotinylated analog of T1^S) (peptide)
peptide: VRKRT[S5]RRL[S5]QERELVE
modifications: staple 6-10; also: biotinylated, site not given here
notes: Stapled form of T1, biotinylated for the pull-down
B2: ^BJM-WT (biotinylated analog of JM-WT) (peptide)
peptide: VRKRTLRRLLQERELVE
modifications: also: biotinylated, site not given here

Target: T1, native, full length, EGFR (wtEGFR) (UniProt P00533 25-1210, limits assumed)
T1 construct: whole, on cells; The pull-down used cell lysates, not intact cells; the residue numbers used (L858R, T790M) fit human EGFR; also called wild type EGFR; Epidermal Growth Factor Receptor
Test: streptavidin-bead pull-down from lysates of wtEGFR-transfected CHO-K1 cells, anti-EGFR immunoblot

Row | Binder | binding result
1 | B1 | no binding (tested: 25 µM)
2 | B2 | no binding (tested: 25 µM)
